From patent publication US20040063907A1 (published 2004)

Assays:
soluble HLA-B*0702 = soluble HLA-B*0702 (human); experiment: fluorescence polarization competition against the fluorescent labeled standard on soluble HLA-B*0702
[1] = target: T1, Beta galactosidase (negative control protein purified from E. coli) (UniProt P00722 1-1024 = β-galactosidase, limits assumed); experiment: ELISA, hybridoma supernatant on coated protein, anti-mouse HRP
T1 construct: also called β-galactosidase; p-galactosidase

[2] = target: T2, purified recombinant C35 protein generated in E. coli (human, UniProt Q9BRT3 1-115, limits assumed); experiment: ELISA, hybridoma supernatant on coated C35 protein, anti-mouse HRP
T2 construct: also called hC35 protein; soluble C35 protein
T2 sequence: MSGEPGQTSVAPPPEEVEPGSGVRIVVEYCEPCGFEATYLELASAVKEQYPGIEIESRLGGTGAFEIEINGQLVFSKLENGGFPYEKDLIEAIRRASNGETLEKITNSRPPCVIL

[3] = target: T3, C35 polypeptide, as expressed by human tumor cells and breast tumor tissue (human, UniProt Q9BRT3 2-112); experiment: immunohistochemistry on paraffin sections, affinity purified antibody
T3 construct: 115 amino acid protein with a predicted prenylation motif CVIL at 112-115; It was detected on unfixed, non-permeabilized tumor cells and in paraffin sections; also called C35 protein; C35 antigen
T3 sequence: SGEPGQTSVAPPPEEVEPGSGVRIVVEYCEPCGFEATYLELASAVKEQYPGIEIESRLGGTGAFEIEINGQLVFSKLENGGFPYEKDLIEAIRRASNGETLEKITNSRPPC

[4] = target: T4, C35 protein, bacterially synthesized (recombinant human C35 purified from E. coli) (human, UniProt Q9BRT3 1-115, limits assumed); experiment: ELISA screen of hybridoma supernatants on plates coated with C35 protein
T4 construct: also called hC35; recombinant C35 protein
T4 sequence: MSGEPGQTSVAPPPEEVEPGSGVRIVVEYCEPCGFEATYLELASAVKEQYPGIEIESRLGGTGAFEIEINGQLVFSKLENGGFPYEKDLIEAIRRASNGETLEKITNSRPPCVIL

[5] = target: T5, C35 as expressed by cells or tissue (flow cytometry, immunohistochemistry) (human, UniProt Q9BRT3 2-112); experiment: immunohistochemistry of breast tumour sections
T5 construct: also called endogenous C35
T5 sequence: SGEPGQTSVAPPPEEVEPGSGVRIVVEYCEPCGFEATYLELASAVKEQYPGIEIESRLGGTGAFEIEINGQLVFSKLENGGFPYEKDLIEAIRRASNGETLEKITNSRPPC

HLA-A*0201 = HLA-A*0201 (human); experiment: fluorescence polarization competition, test peptide at 100 uM against the fluorescent-labeled peptide on HLA-A*0201, from Ymax

T1 sequence (P00722 whole entry): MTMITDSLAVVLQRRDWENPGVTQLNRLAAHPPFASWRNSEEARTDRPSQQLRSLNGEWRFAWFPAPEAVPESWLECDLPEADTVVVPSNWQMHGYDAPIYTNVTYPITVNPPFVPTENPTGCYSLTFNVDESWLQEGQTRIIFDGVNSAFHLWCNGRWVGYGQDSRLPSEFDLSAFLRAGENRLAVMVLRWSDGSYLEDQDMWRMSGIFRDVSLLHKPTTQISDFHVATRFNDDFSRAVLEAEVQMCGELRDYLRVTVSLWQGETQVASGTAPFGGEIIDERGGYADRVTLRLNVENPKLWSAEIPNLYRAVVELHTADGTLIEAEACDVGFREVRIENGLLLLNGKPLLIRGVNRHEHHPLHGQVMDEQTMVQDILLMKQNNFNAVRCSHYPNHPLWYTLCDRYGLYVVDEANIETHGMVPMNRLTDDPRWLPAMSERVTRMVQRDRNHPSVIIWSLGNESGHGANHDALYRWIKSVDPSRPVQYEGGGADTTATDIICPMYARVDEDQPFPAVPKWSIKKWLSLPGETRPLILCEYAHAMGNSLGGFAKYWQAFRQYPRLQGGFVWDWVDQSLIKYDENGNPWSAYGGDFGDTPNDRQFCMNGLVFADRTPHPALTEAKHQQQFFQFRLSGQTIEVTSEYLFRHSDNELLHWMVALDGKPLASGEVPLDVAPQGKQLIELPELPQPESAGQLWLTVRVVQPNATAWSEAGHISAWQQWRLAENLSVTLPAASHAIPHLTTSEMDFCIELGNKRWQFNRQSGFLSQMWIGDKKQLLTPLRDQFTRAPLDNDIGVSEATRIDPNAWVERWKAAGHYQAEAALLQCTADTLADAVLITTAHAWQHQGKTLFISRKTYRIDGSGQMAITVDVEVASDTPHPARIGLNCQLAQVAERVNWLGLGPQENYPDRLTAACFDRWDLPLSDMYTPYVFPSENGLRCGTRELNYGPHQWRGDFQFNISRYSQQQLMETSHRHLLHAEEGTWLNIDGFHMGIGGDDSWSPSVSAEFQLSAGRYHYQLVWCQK

## KITNSRPPA [C35 peptide K104 to A112 (analog with Ala substituted for Cys at 112)]
Soluble HLA-B*0702
  % inhibition: 69.4%

## NSRPPAVIL [C35 peptide N107 to L115 (analog with Ala substituted for Cys at 112)]
Soluble HLA-B*0702
  % inhibition: 68.2%

## EPGQTSVAP [C35 peptide E4 to P12]
Soluble HLA-B*0702
  % inhibition: 54.6%

## GAFEIEING (also called GAFEIEING) [C35 peptide G63 to G71]
Soluble HLA-B*0702
  % inhibition: 51.4%

## ITNSRPPAV [C35 peptide I105 to V113 (analog with Ala substituted for Cys at 112)]
Soluble HLA-B*0702
  % inhibition: 45.2%

## TGAFEIEIN (also called TGAFEIEIN) [C35 peptide T62 to N70]
Soluble HLA-B*0702
  % inhibition: 38.8%

B1: 1E11 monoclonal antibody (antibody, mouse IgG1, V domains shown)
VH: DVQLQESGPGLVKPSQSLSLTCSVTGYSITSGYFWNWIRQFPGNKLEWMGYISYDGSNNSNPSLKNRISFTRDTSKNQFFLKFNSVTTDDSAAYYCTRGTTGFAYWGQGTLVTVSA
VL: QIVLTQSPAIMSASPGEKVTISCSASSSVSYMNWYQQKPGSSPKPWIYHTSNLASGVPARFSGSGSGTSYSLTISSMEAEDAATYYCQQYHSYPPTFGGGTKLEIK
notes: also called IE11
[1]
  binding result: no binding
[2]
  binding result: binds

B2: 1F2 monoclonal antibody (antibody, V domains shown)
VH: DVQLQESGPGLVKPSQSLSLTCSVTGYSITSGYFWNWIRQFPGNKLEWMGYISYDGSNNSNPSLKNRISFTRDTSKNQFFLKFNSVTTDDSAAYYCTRGTTGFAYWGQGTLVTVSA
VL: QIVLTQSPAIMSASPGEKVTISCSASSSVSYMNWYQQKPGSSPKPWIYHTSNLASGVPARFSGSGSGTSYSLTISSMEAEDAATYYCQQYHSYPPTFGGGTKLEIK
notes: Mouse IgG1 kappa; In the VL, one printed codon 'get' was read as gct; also called IF2
[1]
  binding result: no binding
[2]
  binding result: binds
[3]
  binding result: binds

B3: monoclonal antibody of hybridoma clone 1E11 (antibody, mouse IgG1, V domains shown)
VH: DVQLQESGPGLVKPSQSLSLTCSVTGYSITSGYFWNWIRQFPGNKLEWMGYISYDGSNNSNPSLKNRISFTRDTSKNQFFLKFNSVTTDDSAAYYCTRGTTGFAYWGQGTLVTVSA
VL: QIVLTQSPAIMSASPGEKVTISCSASSSVSYMNWYQQKPGSSPKPWIYHTSNLASGVPARFSGSGSGTSYSLTISSMEAEDAATYYCQQYHSYPPTFGGGTKLEIK
notes: Mouse IgG1 kappa, immunization BCA34.hC35; See the note of 1F2 for a translation; also called IE11
[4]
  binding result: binds

B4: monoclonal antibody of hybridoma clone 1F2 (antibody, V domains shown)
VH: DVQLQESGPGLVKPSQSLSLTCSVTGYSITSGYFWNWIRQFPGNKLEWMGYISYDGSNNSNPSLKNRISFTRDTSKNQFFLKFNSVTTDDSAAYYCTRGTTGFAYWGQGTLVTVSA
VL: QIVLTQSPAIMSASPGEKVTISCSASSSVSYMNWYQQKPGSSPKPWIYHTSNLASGVPARFSGSGSGTSYSLTISSMEAEDAATYYCQQYHSYPPTFGGGTKLEIK
notes: also called IF2
[5]
  binding result: binds
[4]
  binding result: binds

## SVAPPPEEV [C35 peptide S9 to V17]
HLA-A*0201
  % inhibition: 96.9%

## SGVRIVVEY [C35 peptide S21 to Y29]
HLA-A*0201
  % inhibition: 90.8%

## ITNSRPPCV [C35 peptide I105 to V113]
HLA-A*0201
  % inhibition: 86.4%

## FEIEINGQL [C35 peptide F65 to L73]
HLA-A*0201
  % inhibition: 74.8%

## TYLELASAV [C35 peptide T38 to V46]
HLA-A*0201
  % inhibition: 47.3%

## GTGAFEIEI [C35 peptide G61 to I69]
HLA-A*0201
  % inhibition: 46.5%

B5: 1B3 monoclonal antibody (antibody, mouse IgG1, V domains shown)
VH: EVQLQESGPSLVKPSQTLSLTCSVTGDSITSGYWNWIRKFPGNKLEYVGYISYSGGTYYNPSLKSRISITRDTSKNHYYLQLNSVTTEDTATYYCARGAYYGGAFFPYFDVWGAGTTVTVSS
VL: DVQITQSPSFLAASPGETITINCRASKYISKHLVWYQEKPGETKKLLIYSGSTLQSGLPSRFSGSGSGTDFTLTISSLEPEDFAMYYCQQHNEYPLTFGAGTKLELK
notes: Mouse IgG1, tested as hybridoma supernatant
[1]
  binding result: no binding

B6: 3E10 monoclonal antibody (antibody, V domains shown)
VH: EVQLQESGPSLVKPSQTLSLTCSVTGDSITSGYWNWIRKFPGNKLEYVGYISYSGGTYYNPSLKSRISITRDTSKNHYYLQLNSVTTEDTATYYCARGAYYGGAFFPYFDVWGAGTTVTVSS
VL: DVQITQSPSFLAASPGETITINCRASKYISKHLVWYQEKPGETKKLLIYSGSTLQSGLPSRFSGSGSGTDFTLTISSLEPEDFAMYYCQQHNEYPLTFGAGTKLELK
[1]
  binding result: no binding
